Data set [1] in a line: Anti-drug antibody (ADA) responses in serum, electrochemiluminescent solution-phase bridging immunoassay. It counts as in vivo, human. The following applies: Days 15, 29 and 101 after single IV dose. From the text: Blood samples were collected at Days 15(±1), 29(±2) and 101(±5) to evaluate anti-drug antibody (ADA) responses to MEDI8852 in serum using an electrochemiluminescent, solution-phase, bridging immunoassay. All ADA results were negative (i.e., no anti-drug antibody was found).

For data set [2] the following is noted: in vivo.
Data set [3] concerns influenza A virus infection. The following applies: human, in vivo, iv.

As to “MEDI8852: human IgG1 kappa monoclonal antibody that binds the conserved stalk region of influenza HA protein; VH SEQ ID NO:2, VL SEQ ID NO:7”, the “anti-drug antibody (ADA) results” value in data set [1] is given as “negative”. In addition, the “half-life following a single IV dose” value in data set [2] (human, iv) lay within 19.4 to 22.6 days. The PK dose linearity result in data set [2] is “dose-linear”. In addition, the efficacy entry in data set [3] is recorded as “better than oseltamivir alone”.

The values above are taken from US12357692B2, “Method of treating influenza A” (MEDIMMUNE, LLC, priority 2016, dated 2025).
